In patent US20240209041A1 (SRI INTERNATIONAL, published 2024):
Primed or numbered codes have the meaning given here. [ ]: non-standard residue; d: D form. PEG11′ = not defined here

Target: purified EphA2 (UniProt P29317 25-534, limits assumed)
Assay: binding to purified EphA2; method not stated

Chain of purified EphA2 (P29317 25-534 limits assumed): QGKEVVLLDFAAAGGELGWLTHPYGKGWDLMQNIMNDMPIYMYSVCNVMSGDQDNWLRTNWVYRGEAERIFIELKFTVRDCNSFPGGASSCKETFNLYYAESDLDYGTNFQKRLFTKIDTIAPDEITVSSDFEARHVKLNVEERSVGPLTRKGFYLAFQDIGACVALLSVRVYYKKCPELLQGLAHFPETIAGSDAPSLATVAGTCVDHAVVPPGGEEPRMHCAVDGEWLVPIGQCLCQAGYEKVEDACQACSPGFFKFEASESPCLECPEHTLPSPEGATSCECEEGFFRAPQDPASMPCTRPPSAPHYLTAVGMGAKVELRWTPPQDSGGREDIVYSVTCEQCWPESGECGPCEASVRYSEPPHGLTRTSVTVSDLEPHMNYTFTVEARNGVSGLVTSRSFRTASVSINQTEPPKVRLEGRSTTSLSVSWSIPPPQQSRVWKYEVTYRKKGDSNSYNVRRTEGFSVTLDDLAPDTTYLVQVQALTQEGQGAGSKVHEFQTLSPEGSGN

B1: MGS_H1299.2 V4 (peptide)
peptide: Ac-YAAWPASGAWT[PEG11′]C-NH2
notes: Optimized MGS peptide from phage display (parent H1299.2); also called MGS_1299.2 V4
For B1, the Kd was 3.2 nM.
